By stoichiometry N is commonly meant a count of units in the complex or per binding partner.

This note sets out measurements from publication PMC7388177 (Cell reports, 2020).

For data set [1], the target named is T1, human ATG9A, purified in LMNG (mVenus-His tag cleaved) (human), Q7Z3C6.
T1 chain: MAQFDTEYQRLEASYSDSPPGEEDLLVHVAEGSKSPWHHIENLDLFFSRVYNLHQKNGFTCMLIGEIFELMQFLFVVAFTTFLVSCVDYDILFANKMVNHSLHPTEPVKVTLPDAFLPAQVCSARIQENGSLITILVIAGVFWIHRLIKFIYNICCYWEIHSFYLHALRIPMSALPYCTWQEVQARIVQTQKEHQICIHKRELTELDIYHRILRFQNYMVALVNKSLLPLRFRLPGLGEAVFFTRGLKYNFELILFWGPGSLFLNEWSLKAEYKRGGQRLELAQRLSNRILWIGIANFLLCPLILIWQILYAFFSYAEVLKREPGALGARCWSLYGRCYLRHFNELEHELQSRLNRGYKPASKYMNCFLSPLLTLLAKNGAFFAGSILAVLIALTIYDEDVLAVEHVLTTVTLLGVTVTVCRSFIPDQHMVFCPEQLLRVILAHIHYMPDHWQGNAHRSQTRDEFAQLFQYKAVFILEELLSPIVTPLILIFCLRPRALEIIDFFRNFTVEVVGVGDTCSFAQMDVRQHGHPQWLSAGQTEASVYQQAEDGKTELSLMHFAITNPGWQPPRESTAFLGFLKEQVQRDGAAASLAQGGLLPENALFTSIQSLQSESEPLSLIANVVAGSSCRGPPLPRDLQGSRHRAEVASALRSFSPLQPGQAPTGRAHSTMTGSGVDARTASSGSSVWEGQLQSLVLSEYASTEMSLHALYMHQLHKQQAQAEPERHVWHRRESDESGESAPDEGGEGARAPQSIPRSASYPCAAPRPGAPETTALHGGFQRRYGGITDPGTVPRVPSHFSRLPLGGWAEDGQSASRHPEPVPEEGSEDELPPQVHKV
As to the kind of experiment: negative-stain EM. The following applies: remark: other sources report otherwise.

The data set “cross-linking” deals with the molecule itself. In words: cross-linking.
The target in data set [2] is T2, ATG9A-mVenus fusion protein in membranes (human), Q7Z3C6.
T2 chain: T1 chain
As to the kind of experiment: cross-linking. The conditions noted are these: remark: other sources report otherwise.

The target of data set [3] is T3, endogenous ATG9A of HeLa cells (human (endogenous in HeLa)), Q7Z3C6.
T3 chain: T1 chain
As to the kind of experiment: cross-linking. The conditions noted are these: remark: other sources report otherwise.

Substitutions are numbered along the chain they refer to. In names and notes the source's numbering stands.

B1: human ATG9A, purified in LMNG (mVenus-His tag cleaved), Q7Z3C6 1-839 (natural protein)
chain: T1 chain
For B1, the stoichiometry N in data set [1] came out at 3.

B2: ATG9A-mVenus (F68C + N379C) (natural protein, human, UniProt Q7Z3C6 1-839, looked up)
chain: T1 chain with F68C, N379C
As to B2, in the data set “cross-linking”, the “stoichiometry N” value was 3.

B3: ATG9A-mVenus fusion protein in membranes, Q7Z3C6 1-839 (natural protein)
chain: T1 chain
B3: the stoichiometry N in data set [2] came out at 3.

B4: endogenous ATG9A of HeLa cells, Q7Z3C6 1-839 (natural protein)
chain: T1 chain
B4 returned a stoichiometry N in data set [3] of 3.

B5: ATG9A-mVenus (N57C + P371C) (natural protein, human, UniProt Q7Z3C6 1-839, looked up)
chain: T1 chain with N57C, P371C
B5: in the data set “cross-linking”, the “stoichiometry N” value was 3.
